According to publication PMC9691722:

Biological target: HCV1406 TCR
Experiment: SPR; steady-state titration; TCR amine coupled to the sensor surface (1000-5000 RU), peptide/HLA-A2 injected at increasing concentrations, 5 μL/min, 25 °C, HBS-EP (10 mM HEPES, 150 mM NaCl, 3 mM EDTA, 0.005% surfactant P20, pH 7.4); 1:1 model; mutants globally fit alongside wild type with a shared RUmax

Q: With “NS3/HLA-A2 with Arg65 of HLA-A2 mutated to alanine (from UniProt P61769 21-119) (peptide-MHC)” as the substance, how does the Kd read?
A: > 1500 µM
